Experimental data published in patent US20080247947A1, “High dose 111In-pentetreotide therapy of neuroendocrine tumors” (priority 2007, published 2008).
Entries after “also recorded” stand apart in the source; their conditions may differ.

Columns and labels:
[1] = cited from earlier work
[2] = tested on: carcinoid syndrome, advanced disease; conditions: patients with advanced disease; cited from earlier work
[3] = tested on: carcinoid tumors; conditions: cited from earlier work
[4] = tested on: patients with progressive neuroendocrine tumors; assay: Non-randomized trial: hematological, renal and hepatic toxicities by NCI common toxicities criteria; format: in vivo
Description: In a non-randomized trial, 32 patients (21 men and 11 women, from 16-83 years old (average 56 years old)) were tested. Among these patients, there were 25 Caucasions (78%), 2 Blacks (6%), 4 Hispanics (12.5%) and 1 other (3%). All patients had progressive neuroendocrine tumors (21 Carcinoma, 7 Islet Cell Carcinoma of the Pancreas, 1 Pituitary Adenoma, 1 Glucagonoma, and 1 Pheochromocytoma) and all had failed first line therapy (23 chemotherapy, 12 radiotherapy, and 28 surgery).
Fourteen patients received one therapy (ranging from 473.5 to 511.6 mCi, with an average of 489.2 mCi) and 18 patients received two treatments with the cumulative doses ranging from 955.1 to 1,006.1 mCi (average=982.8 mCi/patient). Patients were evaluated for evidence of hematological, renal and hepatic toxicities using NCI common toxicities criteria and followed for an average of 9 months (ranging from 1.7 to 17.2 months).
(§1) Patients were injected with ^111In-pentetreotide at an average dose of 489.2 mCi (ranging from 473.5 to 511.6 mCi) as an intravenous infusion in physiological saline using a specially designed IV pole to decrease radiation exposure to the personnel. The infusion took about 3 to 5 hours, in an outpatient setting. The amount of octreotide administered was 30 mg. Patients were evaluated for hematological, renal and hepatic toxicities using NCI common toxicities criteria on week 4, 5, 6, and 7 after treatment, and every three months thereafter. Patients were followed for an average of 8.69 months with a range of 1.7-17.2 months. 18 patients received a second treatment 10-12 weeks after the first therapy with an average cumulative dose of 982.8 mCi (ranging from 955.1 to 1006.1 mCi). These patients were evaluated for a clinical and metabolic responses beginning 4 weeks after their second therapy.

[5] = tested on: progressive neuroendocrine tumors; assay: Non-randomized trial: clinical, metabolic and imaging response (RECIST) after two cycles; format: in vivo; conditions: 18 patients, two cycles of 500 mCi
Text: Among these patients, seventeen (53%) had grade I or II hematological toxicities, while one patient had grade III thrombocytopenia with nadir mean of 5 weeks (ranging from 4 to 6 weeks) after therapy (FIG. 2). These toxicities were transient, lasting from 1 to 6 weeks (averaging 3 weeks). […] One patient had grad II liver toxicity which appeared 4 weeks after the therapy and resolved in week 5. […] Among the 18 patients (13 men and 5 women, from 41 to 83 years old (average age 59)), who were treated with two cycles of high dose (500 mCi) ^111In-pentetreotide, therapeutic efficacy of this treatment regimen is evident (FIG. 3). These patient had progressive neuroendocrine tumors and failed first-line therapy. According to the pre-therapy diagnostic ^111In-pentetreotide scan, these patients had grade 3 to grade 5 tumors. In this trial, each dose of ^111In-pentetreotide was infused over a period of 3 to 6 hours. The two treatments were spaced a few weeks (e.g., […]) apart. The patients were monitored for clinical, metabolic, and imaging responses based on using Response Evaluation Criteria in Solid Tumors (RECIST) criteria (Therasse P, Arbuck S G, Eisenhauer E A, et al. New guidelines to evaluate the response to treatment in solid tumors. European Organization for Research and Treatment of Cancer, National Cancer Institute of the United States, National Cancer Institute of Canada. Journal of the National Cancer Institute 2000; 92(3):205-16.).
as §1
The efficacy of ^111In-pentetreotide therapy was evaluated in 18 patients who received two cycles of therapy. The primary endpoint was clinical, metabolic and imaging response using RECIS criteria. […] Tumor image before and after treatment showing no progression (FIG. 6).

[6] = tested on: disseminated NETs; conditions: 16 patients, repeated doses 81-134 mCi, cited from earlier work
[7] = tested on: NETs; conditions: 180 mCi every 3 weeks for 10 occasions; cited from earlier work
[8] = 18 patients, double-dose treatments
[9] = 32 patients, one or two cycles of about 500 mCi

Question: For `C[C@@H](O)[C@@H]1NC(=O)[C@H](CCCCN)NC(=O)[C@@H](Cc2c[nH]c3ccccc23)NC(=O)[C@H](Cc2ccccc2)NC(=O)[C@@H](NC(=O)[C@H](N)Cc2ccccc2)CSSC[C@@H](C(=O)N[C@H](CO)[C@@H](C)O)NC1=O` [octreotide], which in vivo half-life [1] is on record?
Answer: 1.5 to 2 h

Question: And the “tumor stabilization, patients” value [2]?
Answer: 50-55%

Question: For Interferon [Interferon (IFN)], which biochemical response rate ([3]; carcinoid tumors) is on record?
Answer: 40%

Question: And the tumor response rate ([3]; carcinoid tumors)?
Answer: 12%

Question: And the toxicity ([3]; fever, anorexia, weight loss, fatigue and myelosuppression)?
Answer: significant toxicity

Question: For “[^111In-DTPA-D-Phe1]-octreotide [^111In-pentetreotide]”, which nose bleeds ([4]; 4 weeks after treatment) is on record?
Answer: One patient

Question: And the “patients with grade I or grade II hematological toxicities” value ([4]; 18 patients, double-dose (two cycles of 500 mCi))?
Answer: 55%

Question: And the “duration of hematological toxicities” value [4, 8]?
Answer: 1-6 weeks

Question: What about the “grade III thrombocytopenia” value [4, 8] of the same compound?
Answer: one patient

Question: What about the “nadir mean after therapy” value [4, 8] of the same compound?
Answer: 5 weeks

Question: And the “need for supportive therapy” value [4, 8]?
Answer: None of the patients required supportive therapy

Question: What about the renal toxicity ([4]; 18 patients, double-dose treatments, follow-up 3.93 to 17.23 months) of the same compound?
Answer: No renal toxicity was observed

Question: And the “grade II liver toxicities” value ([4]; 18 patients, double-dose treatments, appeared 4 weeks after therapy, resolved on week 5)?
Answer: One patient

Question: What about the renal toxicity ([4]; 32 patients, follow-up 1.7 to 17.2 months) of the same compound?
Answer: no evidence of renal toxicity; also recorded: No significant short or long term renal toxicity

Question: And the “need for supportive therapy” value ([4]; 32 patients, one or two cycles)?
Answer: None of the patients required supportive therapy

Question: And the “duration of hematological toxicities (average)” value [4, 9]?
Answer: 3 weeks

Question: What about the “grade III thrombocytopenia” value [4, 9] of the same compound?
Answer: one patient

Question: And the “nadir mean of hematological toxicity after therapy” value [4, 9]?
Answer: 5 weeks

Question: What about the “patients with grade I or II hematological toxicities” value ([4]; 32 patients, one or two cycles of about 500 mCi, intravenous infusion) of the same compound?
Answer: 53%

Question: What about the “grade II liver toxicity” value ([4]; 32 patients, appeared 4 weeks after therapy, resolved in week 5) of the same compound?
Answer: One patient

Question: What about the “deaths during the course of the study” value ([4]; 32 patients, deaths attributed to tumor burden) of the same compound?
Answer: Two patients died

Question: What about the maximum tolerated dose ([4]; average cumulative dose 982.8 mCi, average follow up 8.69 months) of the same compound?
Answer: maximum tolerated dose has not been reached

Question: What about the “overall treatment associated toxicity” value ([4]; following one or two cycles) of the same compound?
Answer: no evidence of significant treatment associated toxicity

Question: What about the “clinical response (functional living index questionnaire and physical examination), patients” value [5] of the same compound?
Answer: 84%

Question: And the “metabolic response (25% or more decline in chromogranin or other markers), patients” value [5]?
Answer: 72%

Question: What about the “patients achieving stable disease by imaging criteria” value [5] of the same compound?
Answer: 88%

Question: What about the “patients achieving stable disease by imaging criteria (count)” value [5] of the same compound?
Answer: sixteen out of the 18

Question: What about the “patients with sustained benefit” value ([6]; 18 months after the treatments) of the same compound?
Answer: 31%

Question: And the “patients with some short term benefits” value [6]?
Answer: up to 70%

Question: What about the “safety of repeated doses” value [7] of the same compound?
Answer: demonstrated the safety
